This note sets out measurements from publication PMC6667456.

This series has as its target T1, TofR-His (also written His-TofR) (Burkholderia glumae BGR1?) (UniProt A1KWS3).
T1 sequence: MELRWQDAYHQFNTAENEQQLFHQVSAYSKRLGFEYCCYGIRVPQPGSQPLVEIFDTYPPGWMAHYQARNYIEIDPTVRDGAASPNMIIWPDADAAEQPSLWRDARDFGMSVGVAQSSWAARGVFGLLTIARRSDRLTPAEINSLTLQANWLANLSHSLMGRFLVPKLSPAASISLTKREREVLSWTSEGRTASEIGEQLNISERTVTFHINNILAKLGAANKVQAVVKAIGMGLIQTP
Nature of the series: EMSA. To be noted: EMSA: 0.4 nM biotin-DNA, 10 mM Tris-HCl pH 7.5, 10 mM NaCl, 100 mM NaCl (both sic), 0.5 mM EDTA, 1 mM DTT, 5% glycerol, 50 ng/uL poly(dI-dC), 15 min ….

Take “TGGTGTCCTCCAGATATGGGCTGCAGTCGATATGGGCTGCAGTATCGGATCTCGCTTATCATTACTCAAACGAAATTTTCTTGAGTTGAACATGAAAAATATTCAGGTTCACGCTGCTACTGAACGCCGCCATGAATCGCTCGCCGCTTGAGCTGCGCCATCTGCAGACCCTCACGGCGCT (double strand) [metE1 putative promoter region, 181 bp]”: the binding entry was “binds”.
